Results taken from patent US20150232562A1 (Ablynx, published 2015).
Substitutions are numbered along the chain they refer to.

B1: 14H101/1-128 (VHH)
VHH: EVQLVESGGGLVQAGGSLRLSCAASGRTFISSPMGWFRQAPGKEREVVAATTRSGGLPYYSDSVKGRFTISRDNAKNTVDLQMSSLKPEDTAAYYCAADQKYGMSYSRLWLVSEYEYWGQGTQVTVSS
notes: C-term myc-His6 tag
B2: 118N121_A7_1_OK/1-122 (VHH)
VHH: EVQLVESGGGLVQPGGSLRLSCAASGNIKSIDVMGWHRQAPGKERELVSDISFGGNTNYANSVKGRFTISRDNAKNTVYLQMNSLKPEDTAVYYCYADILYKTDIYYRNDFWGQGTQVTVSS
notes: C-term myc-His6 tag
B3: 118N121_A2_2_OK/1-124 (VHH)
VHH: KVQLVESGGGLVQAGGSLRLSCAASGRTFSNYSVGWFRQAPGKEREFVAALSKDGARTYYAASVKGRFTIYRDNAKNVVYLQMSVLNGEDTAVYYCAADHFTFMSNLPSEYDYWGQGTQVTVSS
notes: C-term myc-His6 tag
B4: 118N121_A11_1_OK/1-120 (VHH)
VHH: EVQLVESGGGLVQPGGSLRLSCAASGFPFGMYGMRWVRQAPGKGPERVSSINSDGDTTYYADSVKGRFTISRDNDENMLYLQMNSLKPEDTAVYYCATGFSDRSFAVTHKGQGTQVTVSS
notes: C-term myc-His6 tag
B5: 13F81A/1-128 (VHH)
VHH: EVQLVESGGGLVQAGGSLRLSCAASGRTFSRYAMGWFRQAPGKEREFVAAISWTGGSSYYGDSVKGRSTISRENAENTVYLQMNSLKPEDTAVYYCAANSDEFYSGTLKLQSRMVEYWGQGTQVTVSS
notes: C-term myc-His6 tag
B6: 12C42/1-124 (VHH)
VHH: EVQLVESGGGLVQAGGSLRLSCAASGRTFSRYAMHWFRQAPGSERDFVAGISWDGGSTFYANSVKGRFTISRDNAKNMVYLQMNSLKPEDTAVYYCAAAGSAGPPSIDRQYDYWGQGTQVTVSS
notes: C-term myc-His6 tag
B7: 118N121_B3_1_OK/1-123 (VHH)
VHH: EVQLVESGGGLVQPGGSLRLSCAASGRTFSDLALGWFRRAPGKEREHVAAISSSGVTTIYADSVRGRFTISRDEAKNTVYLEMNSLKTDDTAVYYCAARLTMATPNQSQYYYWGQGTQVTVSS
notes: C-term myc-His6 tag
B8: 12D102/1-118 (VHH)
VHH: EVQLVESGGGLVQPGGSLRLSCAASGSSLSFNAMGWSREAPGKRRELVARIISDDSTLYADSVKGRFTISRDYAKNTAYLQMNSLKPEDTAVYYCVADVRDSIWRSYWGQGTQVTVSS
notes: C-term myc-His6 tag
B9: 12E42/1-118 (VHH)
VHH: EVQLVESGGGLVQPGGSLRLSCAHSGRAFSLRTMGWYRQAPGNQRELVALISAGDSTYYPDSVKGRFTVSRDNAKNTVYLQMNSLKPEDTAVYYCNAKAVTSRDHEYWGQGTQVTVSS
notes: C-term myc-His6 tag
B10: 118N121_B2_1_OK/1-130 (VHH)
VHH: EVQLVESGGGLVQAGGSLRLSCAASGFSLDDRAIAWFRQAPGKAREGVSCITPHHGGIIFTRESVKGRFATSSDSAKNTVYLQMHSLKPEDTAVYYCATLRTDYSINWANCQRDSLYGYWGQGTQVTVSS
notes: C-term myc-His6 tag
B11: 14H81/1-125 (VHH)
VHH: EVQLVESGGGLVQAGGSLSLSCAASGRTFSNYRMAWFRQAPRKEREFVAAISRSGESTYFADSMKGRFTISRDNTESTGYLQMNNLKPEDTAVYYCAASWDHGDYVDGGFFYDYWGQGTQVTVSS
notes: C-term myc-His6 tag
B12: 118N121_B7_4_OK/1-124 (VHH)
VHH: EVQLVESGGGLEQAGGSLRLSCAASGLTFRSAAMGWFRQGPGKEREFVAAISRDGAATYYTDSVKGRFTISRDNAKNTVFLQMNSLKPEDTAIYYCAADFRLARLRVADDYDYWGQGTQVTVSS
notes: C-term myc-His6 tag
B13: 118N121_A5_2_OK/1-114 (VHH)
VHH: EVQLVESGGGSVQPGGSLRLSCVASGSISSTNAMGWHRQVSGKERELVAIVTDGFTNYADFAKGRFTISRDNAKTTVYLQMNSLQPEDTARYYCRYSGIGTDNWGQGIEVTVSS
notes: C-term myc-His6 tag
B14: 118N121_A9_2_OK/1-114 (VHH)
VHH: B13 VHH with T31V, S41P, E44Q
notes: C-term myc-His6 tag
B15: 13G11/1-122 (VHH)
VHH: EVQLVESGGGLVQAGGSLRLSCAASGRTFISNYAMGWFRQAPGKEREFVATINWSGSHSDYADSVKGRFTISRDNAKNTVYLQMNNLKSEDTAVYYCAPGWGTAPLSTSVYWGQGTQVTVSS
notes: C-term myc-His6 tag
B16: 118N121_B7_1_OK/1-119 (VHH)
VHH: EMQLVESGGGLVQPGGSLRLSCAASGNIPPINAMAWYRQAPGNERELVAAVTSGGGTNYATSVKGRFIISRDDSKNTVDLQMNSLKPEDTAVYYCNLGGWTRTHPFDYWGQGTQVTVSS
notes: C-term myc-His6 tag
B17: 12C91/1-121 (VHH)
VHH: EVQLVESGGGLVQAGGSLRLSCVASGRTSSYYHMAWFRQAPGKEREFIAAINLSSGSTYYPDSVKGRFTISRGNAKNTVNLQMNSLKPEDTAVYYCAADNYRDSYLEYDYWGQGTQVTVSS
notes: C-term myc-His6 tag
B18: 12E33/1-119 (VHH)
VHH: EVQLVESGGGMVQAGGSLRLSCAASGLTLSNYGMGWFRQAPGKEREFVSSINWSGTHTYDADFVKGRFIISRDNAKNTVYLQINSLKPEDTAVYYCAAGGWGTGRYNYWGQGTQVTVSS
notes: C-term myc-His6 tag
B19: 21A31/1-125 (VHH)
VHH: EVQLVESGGGLVQAGGSLRLSCAASEPTFSSVAMGWFRQGPGKEREFAATITWSGDSTYVTDSVKGRFTISRDNARNTAYLQMDSLRPEDTAVYSCAARRWSGTLSLFDNEYYYWGQGTQVTVSS
notes: C-term myc-His6 tag
B20: 12C71/1-125 (VHH)
VHH: EVQLVESGGGLVQAGGSLRLSCTASGGTFGSYALGWFRQSPGKERESVAAIDWDGSRTQYADSVKGRFTISRENVKDTMYLQMNSLQAEDTGVYYCVRSRHSGNTLSFSLKYDYWGQGTQVTVSS
notes: C-term myc-His6 tag
B21: 11B102/1-118 (VHH)
VHH: EVQLVESGGGLVQAGGSLRLSCAASGGIFSSHAISWFRQAPGKAREFVAAINWSGSHRDYADSAKGRFTISRDNAKKTAYLQMNSLRPEDTAVYYCVGGWKTDEYVKWGQGTQVTVSS
notes: C-term myc-His6 tag
B22: 12E21/1-115 (VHH)
VHH: EVQLVESGGGLVQPGGSLRLSCAASGSIDSIHVVGWYRKAPGKQREVVAYIGTAGATHYADSVKGRFTISRDNAENLVYLQMNNLKPEDTAVYYCSAGWGDSAYWGQGTQVTVSS
notes: C-term myc-His6 tag
B23: 11B61/1-120 (VHH)
VHH: EVQLVESGGGLVQAGGSLRLSCAASGRTSSGYGMGWFRQAPGKEREFVAAVGWYGSTYFADSVKGRFTIYRDNAQNTMYLQMNSLKPEDTAVYYCAASSSLATISQPSSWGQGTQVTVSS
notes: C-term myc-His6 tag
B24: 11A52/1-120 (VHH)
VHH: EVQLVESGGGLVQAGGSLRLSCAASGRALSNYAMRWFRQAPGKEREFVATINWSGSHTDYADSVKGRFTISRDNAENTVYLQMNSLTPEDTAVYYCASGWGATQAQSGFWGQGTQVTVSS
notes: C-term myc-His6 tag
B25: 14H111/1-120 (VHH)
VHH: B24 VHH with S30I, N31S, Y32F, T50A, S56T, Q82L, T87I, S98T, S107H
notes: C-term myc-His6 tag
B26: 118N121_A10_1_OK/1-131 (VHH)
VHH: EVQLVESGGGLVQAGGSLRLSCAASGFSFADYAIGWFRQAPGKEREGVSCIANSEGTKYYADSAQGRLPISSDNAKKTVYLQMDSLKPEDTAVYYCAALPYTICPVVVKKGAVYYGVDDYWGKGTQVTVSS
notes: C-term myc-His6 tag
B27: 118N121_A6_2_OK/1-123 (VHH)
VHH: EVQLVESGGGLVQAGGSLRLSCVASGRTFSGYSVGWFRQSPGKEREFVGGINWSGRTYYVDSVKGRFTFSRDNAKNTVYLQMNSLKPEDTAIYLCAVDRFNTIANLPGEYDYWGQGTQVTVSS
notes: C-term myc-His6 tag
B28: 21A41/1-120 (VHH)
VHH: EVQLVESGGGLVQAGGSLRLSCAASGRIFSNYAWSWFRQAPGKERGFVAAINWSGGYTDYADSVKGRFTISRDNTKNTVYLQMNSLKPEDTAVYYCRPGWVTPSYEYGNWGQGTQVTVSS
notes: C-term myc-His6 tag
B29: 118N121_B8_1_OK/1-135 (VHH)
VHH: EVQLVESGGGLVQDGGSLRLSCAASGQLANFASYAMGWFRQAPGKAREFVAAIRGSGGSTYIADPARSTYYADFVKGRFTISRDNAKNTVYLQMNSLKPEDTAVYYCACETFNSISNLPGEYDYWGQGTQVTVSS
notes: C-term myc-His6 tag
B30: 13F21/1-123 (VHH)
VHH: EVQLVESGGGLVQSGGSLRLSCVASGTIVSINATSWYRQAPGNQRELVATIIGDGRTHYADSVKDRFTISRDAAANLVYLQMNSLKPSDTAIYSCNANGIESYGWGNRHFNYWTVGTQVTVSS
notes: C-term myc-His6 tag
B31: 118N121_A8_2_OK/1-124 (VHH)
VHH: EVQLVESGGGLVQAGGSLTLSCVISGLTLESHAMGWFRQAPGEEREFVATIRWSGSATFYSDSVKGRFTISRDNAKNTVYLQMNSLKPEDTAVYYCAARKIYRSLSYYGDYDSWGQGTQVTVSS
notes: C-term myc-His6 tag
B32: 2E5 (VHH)
VHH: EVQLVESGGSLVQPGESLRLSCAASGFTFDDYAMSWVRQAPGKGLEWISSINWSGTHTDYADSVKGRFTISRNNANNTLYLQMNNLKFEDTAVYYCAKNWRDAGTTWFEKSGSAGQGTQVTVSS
notes: C-term myc-His6 tag
B33: 5F8 (VHH)
VHH: B32 VHH with E16G, M34L
notes: C-term myc-His6 tag
B34: 13B2 (VHH)
VHH: B32 VHH with E16G, T58K
notes: C-term myc-His6 tag

Each binder was assayed against T1, recombinant human ErbB2/Fc chimera (human, UniProt P04626 23-652) (assay: ELISA, coated ErbB2/Fc).
T1 construct: bought from R&D Systems; also called rhErbB2-Fc; rhErb2-Fc; Fc part of the bought chimera not given; not described
B1: binds. B2: binds. B3: binds. B4: binds. B5: binds. B6: binds. B7: binds. B8: binds. B9: binds. B10: binds. B11: binds. B12: binds. B13: binds. B14: binds. B15: binds. B16: binds. B17: binds. B18: binds. B19: binds. B20: binds. B21: binds. B22: binds. B23: binds. B24: binds. B25: binds. B26: binds. B27: binds. B28: binds. B29: binds. B30: binds. B31: binds.

The binders below were run against T2, Epidermal Growth Factor Receptor 2 (HER2) (human, UniProt P04626 23-1255) (assay: FMAT competition on SKBR3 cells, periplasmic extract).
T2 construct: whole, on cells; the cell line is named under assay; also called ErbB-2; ERBB2
For B32, the “% blocking of Herceptin binding” value was over 90%. B33 was tested, and the “% blocking of Herceptin binding” value was over 90%. With B34 the “% blocking of Herceptin binding” value was over 90%.
